Residue numbers refer to the chain shown, from its start. Names and notes keep the numbering of the source. Blank lines part the entries; values can stand above or below the binder they belong to.
Experiments:
[1] = target: T1, human ANGPTL3 (human, UniProt Q9Y5C1 17-460); assay: single point ELISA
T1 construct: Biotinylated in the ELISA assays; also called hANGPTL3; free ANGPTL3
T1 sequence: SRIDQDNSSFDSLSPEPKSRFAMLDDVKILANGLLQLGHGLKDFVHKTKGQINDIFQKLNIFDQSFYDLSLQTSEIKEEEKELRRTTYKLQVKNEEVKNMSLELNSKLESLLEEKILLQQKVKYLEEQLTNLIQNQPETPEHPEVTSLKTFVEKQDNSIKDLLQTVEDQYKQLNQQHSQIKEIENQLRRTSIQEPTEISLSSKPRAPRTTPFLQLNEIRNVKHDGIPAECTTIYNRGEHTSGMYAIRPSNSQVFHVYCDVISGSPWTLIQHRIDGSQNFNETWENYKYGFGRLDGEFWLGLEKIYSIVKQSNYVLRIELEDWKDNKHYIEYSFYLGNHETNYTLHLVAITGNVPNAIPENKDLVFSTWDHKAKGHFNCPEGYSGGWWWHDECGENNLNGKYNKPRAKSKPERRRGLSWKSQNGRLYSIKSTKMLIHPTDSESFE
Procedure: (§1) Single Point ELISA (SPE) Assay: Ab binding selectivity to either the ANGPTL3/8 complex, free ANGPTL3 or free ANGPTL8 is initially verified using standard ELISA assays in a single point format. […] IgG secreted into supernatants after expression in CHO cells are then captured to the assay plate. Biotinylated antigen is added at a concentration of 25 nM to allow for Ab/antigen binding. Ab/antigen complexes are detected after adding alkaline phosphatase-conjugated neutravidin and alkaline phosphatase substrate, and subsequent measurement of the optical density at 560 nm. Positive binding is determined by a signal greater than 3 fold over the non-binding background signal.

[2] = target: T2, human ANGPTL8 (human, UniProt Q6UXH0 22-198); assay: single point ELISA
T2 construct: Biotinylated in the ELISA assays; also called hANGPTL8; free ANGPTL8
T2 sequence: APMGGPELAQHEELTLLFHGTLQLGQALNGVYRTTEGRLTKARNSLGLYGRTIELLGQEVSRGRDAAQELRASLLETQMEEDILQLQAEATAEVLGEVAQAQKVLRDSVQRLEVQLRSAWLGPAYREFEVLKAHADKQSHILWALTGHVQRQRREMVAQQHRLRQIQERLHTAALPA
Procedure: as §1

[3] = target: T1, human ANGPTL3; assay: single point ELISA; IgG captured by anti-human Fc; biotinylated antigen at 25 nM
Procedure: as §1

[4] = target: T3, human ANGPTL3/8 complex (human, UniProt Q9Y5C1 17-460; Q6UXH0 22-198, limits assumed); assay: as above
T3 construct: also called hANGPTL3/8 complex; ANGTPL3/8 complex
T3 sequence 1: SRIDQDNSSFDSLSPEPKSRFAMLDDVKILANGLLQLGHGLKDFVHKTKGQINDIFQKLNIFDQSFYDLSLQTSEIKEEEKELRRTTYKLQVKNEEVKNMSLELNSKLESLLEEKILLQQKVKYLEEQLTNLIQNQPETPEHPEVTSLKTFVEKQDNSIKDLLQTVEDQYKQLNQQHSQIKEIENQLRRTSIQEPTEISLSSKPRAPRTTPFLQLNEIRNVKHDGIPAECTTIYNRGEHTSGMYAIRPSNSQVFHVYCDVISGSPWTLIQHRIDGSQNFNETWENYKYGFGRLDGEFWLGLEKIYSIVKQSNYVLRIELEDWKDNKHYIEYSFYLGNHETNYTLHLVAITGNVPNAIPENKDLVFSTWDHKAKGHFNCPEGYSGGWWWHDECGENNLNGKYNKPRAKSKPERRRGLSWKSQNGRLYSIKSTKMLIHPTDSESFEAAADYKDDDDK
T3 sequence 2: T2 sequence
Procedure: as §1

[5] = target: T1, human ANGPTL3; assay: ELISA; Ab captured by anti-human Fc; biotinylated antigen at 0.046 nM
Procedure: (§2) ELISA Assay: Ab binding selectivity to either the ANGPTL3/8 complex, free ANGPTL3 or free ANGPTL8 is verified using standard ELISA assays. […] Ab from CHO supernatants after expression in CHO cells is then captured to the assay plate and results is an Ab concentration of 2 μg/ml. Biotinylated antigen (ANGPTL3, ANGPTL8 or ANGPTL3/8 complex) is added at varying concentrations by serial dilution to allow for Ab/antigen binding. Ab/antigen complexes are detected after the addition of alkaline phosphatase-conjugated neutravidin, and alkaline phosphatase substrate, and subsequent measurement of the optical density at 560 nm.

[6] = target: T2, human ANGPTL8; assay: as above
Procedure: as §2

[7] = target: T3, human ANGPTL3/8 complex; assay: as above
Procedure: as §2

[8] = target: T1, human ANGPTL3; assay: ELISA, antigen titration
Procedure: as §2

[9] = target: T2, human ANGPTL8; assay: ELISA, antigen titration
Procedure: as §2

[10] = target: T3, human ANGPTL3/8 complex; assay: SPR, Biacore T200; Ab captured on Human Fab Binder, complex injected; pH 7.4, 25 C

B1: anti-ANGPTL3/8 complex Ab having a LC of SEQ ID NO:5 and a HC of SEQ ID NO:6 (antibody, human IgG4 S228P, kappa, F234A L235A, V domains shown)
VH: QVTLKESGPTLVKPTQTLTLTCTFSGFSLSISGVGVGWIRQPPGKALEWLALIYRNDDKRYSPSLKSRLTITKDTSKNQVVLTLTNMDPVDTATYYCARTYSSGWYGNWFDPWGQGTLVTVSS
VL: DIVMTQTPLSLPVTPGEPASISCRSSQSLLDSDDGNTYLDWYLQKPGQSPQLLIYMLSYRASGVPDRFSGSGSGTDFTLKISRVEAEDVGIYYCMQRIEFPLTFGGGTKVEIKR
notes: In the ELISA assays tested as IgG from CHO supernatants; also called the Ab
- binding result [1]: no binding
- binding result [2]: no binding
- OD at 560 nm [3]: 0.074 OD 560 nm
- OD at 560 nm [4]: 2.3 OD 560 nm
- OD at 560 nm [5]: 0.06 OD 560 nm
- OD at 560 nm [6]: 0.051 OD 560 nm
- OD at 560 nm [7]: 0.078 OD 560 nm

B3: Ab with LC variant having a E99Q mutation (SEQ ID NO:25) and a HC of SEQ ID NO:6 (antibody, human IgG4 S228P, kappa, F234A L235A, V domains shown)
VH: B1 VH
VL: B1 VL with E99Q
notes: also called E99Q Variant Ab; E99Q Ab
- binding result [1]: no binding
- binding result [2]: no binding
- OD at 560 nm [3]: 0.083 OD 560 nm
- OD at 560 nm [4]: 1.54 OD 560 nm
- OD at 560 nm [5]: 0.06 OD 560 nm
- OD at 560 nm [6]: 0.096 OD 560 nm
- OD at 560 nm [7]: 0.149 OD 560 nm

Continued, values first:

- binding result [8]: no binding (tested: 100 nM antigen)
- binding result [9]: no binding (tested: 100 nM antigen)
- OD at 560 nm [3]: 0.058 OD 560 nm
- OD at 560 nm [4]: 0.928 OD 560 nm
- Kd [10]: 0.116 nM
- koff [10]: 5.75e-05 s⁻¹
- kon [10]: 497000 M⁻¹ s⁻¹
- OD at 560 nm [5]: 0.06 OD 560 nm
- OD at 560 nm [6]: 0.096 OD 560 nm
- OD at 560 nm [7]: 0.149 OD 560 nm
B2: Ab with LC variant having a D31S mutation (SEQ ID NO:21) and a HC of SEQ ID NO:6 (antibody, human IgG4 S228P, kappa, F234A L235A, V domains shown)
VH: B1 VH
VL: B1 VL with D31S
notes: also called D31S Variant Ab; D31S Ab

- binding result [8]: no binding (tested: 100 nM antigen)
- binding result [9]: no binding (tested: 100 nM antigen)
- OD at 560 nm [3]: 0.076 OD 560 nm
- OD at 560 nm [4]: 0.898 OD 560 nm
- OD at 560 nm [5]: 0.062 OD 560 nm
- OD at 560 nm [6]: 0.074 OD 560 nm
- OD at 560 nm [7]: 0.111 OD 560 nm
B4: Ab with LC variant having a D33A mutation (SEQ ID NO:22) and a HC of SEQ ID NO:6 (antibody, human IgG4 S228P, kappa, F234A L235A, V domains shown)
VH: B1 VH
VL: B1 VL with D33A
notes: also called D33A Variant Ab; D33A Ab
